One block for each binder: values may come before it.
What was measured:
[1] = target: T1, human MSLN-R3-his protein (human, UniProt Q13421 487-598); test: ELISA, coated MSLN-R3
T1 construct: Region 3 of human MSLN, His-tagged; also called human MSLN-R3 protein; hMSLN-R3-his; not shown: His tag

[2] = target: T2, human MSLN-R2-his protein (human, UniProt Q13421 391-486); test: ELISA, coated MSLN-R2;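 note: chimeric antibodies bound to blocked coated plates for 2 h at 37 °C, TMB colour development stopped with HCl, with a negative control antibody for comparison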
T2 construct: Region 2 of human MSLN, His-tagged; also called human MSLN-R2 protein; hMSLN-R2-his; not shown: His tag

[3] = target: T3, human MSLN-R3-3 polypeptide (human); test: ELISA, coated MSLN-R3-3;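 note: chimeric antibodies in serial dilution bound to plate-coated antigen for 2 h at 37 °C, with a negative control antibody alongside, and TMB colour development stopped with HCl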
T3 construct: also called human MSLN-R3-3 protein; hMSLN-R3-3
Protocol: The plate was sealed with a plastic film and incubated at 4° C. overnight. The next day, the plate was washed twice with PBST, and a blocking buffer [PBS+2% (w/w) BSA] was added for blocking at room temperature for 2 h. The blocking buffer was discarded, and a chimeric antibody or negative control antibody serially diluted from 100 nM was added at 50 μL/well. After incubation at 37° C. for 2 h, the plate was washed 3 times with PBST. […] After incubation at 37° C. for 2 h, the plate was washed 5 times with PBST. A TMB substrate was added at 50 μL/well for incubation at room temperature for 5-10 min, and then a stop solution (1.0 N HCl) was added at 50 μL/well.

[4] = target: T4, human MSLN-FL-his protein (human, UniProt Q13421 296-580); test: ELISA, coated MSLN full-length;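 note: binding of chimeric antibodies to plate-bound antigen, read by TMB colour after acid stop, antibody incubated 2 h at 37 °C, negative control antibody run alongside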
T4 construct: also called human MSLN full-length protein; hMSLN-FL-his; not shown: His tag

[5] = target: T5, human MSLN-R1-his protein (human, UniProt Q13421 296-390); test: ELISA, coated MSLN-R1;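 note: serially diluted chimeric antibodies bound to the coated, BSA-blocked plate for 2 h at 37 °C, with TMB colour read after acid stop and a negative control antibody alongside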
T5 construct: Region 1 of human MSLN, His-tagged; also called human MSLN-R1 protein; hMSLN-R1-his; not shown: His tag
T5 chain: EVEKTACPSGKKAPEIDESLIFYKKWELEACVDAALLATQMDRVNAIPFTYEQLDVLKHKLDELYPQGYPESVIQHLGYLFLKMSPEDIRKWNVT

T2 sequence (Q13421 other isoform, or with tags, fused parts or gaps): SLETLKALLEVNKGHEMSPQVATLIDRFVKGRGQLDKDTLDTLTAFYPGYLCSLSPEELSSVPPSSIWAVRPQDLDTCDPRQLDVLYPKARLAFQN
T1 sequence (Q13421 495-606): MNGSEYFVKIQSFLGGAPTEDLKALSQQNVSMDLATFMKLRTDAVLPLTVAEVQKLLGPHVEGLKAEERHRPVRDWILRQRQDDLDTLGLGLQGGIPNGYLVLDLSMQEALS

OD450 at 0.0001 nM [1]: 0.05 OD450
OD450 at 0.001 nM [1]: 0.05 OD450
OD450 at 0.01 nM [1]: 0.06 OD450
OD450 at 0.1 nM [1]: 0.19 OD450
OD450 at 1 nM [1]: 0.86 OD450
OD450 at 10 nM [1]: 1.81 OD450
OD450 at 100 nM [1]: 2.25 OD450
OD450 at none (no antibody) [1]: 0.05 OD450
OD450 at 0.0001 nM [2]: 0.05 OD450
OD450 at 0.001 nM [2]: 0.04 OD450
OD450 at 0.01 nM [2]: 0.04 OD450
OD450 at 0.1 nM [2]: 0.07 OD450
OD450 at 1 nM [2]: 0.04 OD450
OD450 at 10 nM [2]: 0.05 OD450
OD450 at 100 nM [2]: 0.11 OD450
OD450 at none (no antibody) [2]: 0.05 OD450
OD450 at 0.0001 nM [3]: 0.06 OD450
OD450 at 0.001 nM [3]: 0.07 OD450
OD450 at 0.01 nM [3]: 0.07 OD450
OD450 at 0.1 nM [3]: 0.07 OD450
OD450 at 1 nM [3]: 0.07 OD450
OD450 at 10 nM [3]: 0.07 OD450
OD450 at 100 nM [3]: 0.11 OD450
OD450 at none (no antibody) [3]: 0.07 OD450
B1: S009-F1.57.1 (antibody, human IgG1, kappa, V domains shown)
VH: EAQLQQSGAVFVKPGASVKLSCTASGFSSKDIFLHWVKQRPEQGLEWIGRIDPASDNTIYDPKFQDRATITSDRSSNTAYLQFSSLTSEDTAVYFCLYFDFWGQGTTLTVSS
VL: DIVMTQATPSISVTPGESVSISCRSSESLLHSNGNTYLYWFLQRPGQSPQLLIYRMSNLASGVPDRFSVSGSGTAFTLRISRVEAEDVGVYYCMQHLEYPLTFGAGTKLELKR
notes: Human-murine chimeric antibody, human IgG1/kappa constant regions

OD450 at 0.0001 nM [1]: 0.05 OD450
OD450 at 0.001 nM [1]: 0.04 OD450
OD450 at 0.01 nM [1]: 0.04 OD450
OD450 at 0.1 nM [1]: 0.05 OD450
OD450 at 1 nM [1]: 0.04 OD450
OD450 at 10 nM [1]: 0.05 OD450
OD450 at 100 nM [1]: 0.06 OD450
OD450 at none (no antibody) [1]: 0.06 OD450
OD450 at 0.0001 nM [2]: 0.04 OD450
OD450 at 0.001 nM [2]: 0.05 OD450
OD450 at 0.01 nM [2]: 0.19 OD450
OD450 at 0.1 nM [2]: 0.88 OD450
OD450 at 1 nM [2]: 2.04 OD450
OD450 at 10 nM [2]: 2.31 OD450
OD450 at 100 nM [2]: 2.62 OD450
OD450 at none (no antibody) [2]: 0.05 OD450
OD450 at 0.0001 nM [3]: 0.07 OD450
OD450 at 0.001 nM [3]: 0.07 OD450
OD450 at 0.01 nM [3]: 0.08 OD450
OD450 at 0.1 nM [3]: 0.06 OD450
OD450 at 1 nM [3]: 0.07 OD450
OD450 at 10 nM [3]: 0.08 OD450
OD450 at 100 nM [3]: 0.12 OD450
OD450 at none (no antibody) [3]: 0.07 OD450
B2: S009-F1.56.1 (antibody, human IgG1, kappa, V domains shown)
VH: EVQLQQSGAEVVKPGASVKLSCTASGFNIRHTYMHWVKQRPEQGLEWIGRIDPANGNTEYDPKFQGKATITADTSSNTAYLQLSSLTSEDTAVYYCARDGWYIDVWGAGTTVTVSS
VL: DIVMSQSPSSLAVSVGEKVTMSCKSSQSLLYSNNQKNYLAWYQQKPGQSPKLLIYWASTRESGVPDRFTGSGSGTDFTLTISSVKAEDLAVYYCQRYYSYPWTFGGGTKLEIKR
notes: as for B1

OD450 at 0.0001 nM [4]: 0.05 OD450
OD450 at 0.001 nM [4]: 0.06 OD450
OD450 at 0.01 nM [4]: 0.09 OD450
OD450 at 0.1 nM [4]: 0.4 OD450
OD450 at 1 nM [4]: 1.56 OD450
OD450 at 10 nM [4]: 2.47 OD450
OD450 at 100 nM [4]: 2.87 OD450
OD450 at none (no antibody) [4]: 0.06 OD450
OD450 at 0.0001 nM [5]: 0.05 OD450
OD450 at 0.001 nM [5]: 0.05 OD450
OD450 at 0.01 nM [5]: 0.05 OD450
OD450 at 0.1 nM [5]: 0.06 OD450
OD450 at 1 nM [5]: 0.13 OD450
OD450 at 10 nM [5]: 0.43 OD450
OD450 at 100 nM [5]: 0.83 OD450
OD450 at none (no antibody) [5]: 0.06 OD450
B3: S009-F2.58.8 (antibody, human IgG1, kappa, V domains shown)
VH: QVQLLQSGAELAKPGASVKLSCKASGYTFTSYWVHWVKQRPGQGLEWIGYINPNSGYTKYNQKFKDKATLTADKSSSTAYMQLSSLTYEDSAVYYCADHYYGSSRDYFDYWGQGTTLTVSS
VL: QIVLTQSPAIMSASPGEKVTMTCSASSSVSYMYWYQQRPGSSPRLLIYDTSNLASGVPVRFSGSGSGTSYSLTISRMEAEDAATYYCQQWNSYPYTFGGGTKLEIKR
notes: as for B1

Source: patent US20250250357A1 (NANJING ZAIMING PHARMACEUTICAL, published 2025)
